Measured values: publication PMC12048676
Each block holds one substance with its values, some of them ahead of it.

Assays:
[1] = target: geranylgeranylated Cy3-Cdc42 (human) (UniProt P60953)
[2] = target: prenylated A647-Cdc42 (human) (UniProt P60953)
[3] = target: prenylated A647-Cdc42 (human) (UniProt P60953); remark: listed apart in the source
[4] = target: biotin-Cy3-Cdc42 (geranylgeranylated) (human) (UniProt P60953); assay: single-molecule dual-color TIRF microscopy, co-recruitment; 100 pM biotin-Cy3-Cdc42:A647-RhoGDI1 complex, imaged <2 min after dilution, captured on neutravidin-coated biotin-PEG coverslips; 50 mM HEPES pH 7.5, 50 mM NaCl, 2 mM MgCl2; 22 ms per frame; 23 °C
[5] = target: prenylated A647-Cdc42 (human) (UniProt P60953); remark: listed apart in the source
RhoGDI1 (Homo sapiens) = RhoGDI1 (Homo sapiens) (UniProt P52565); details: cited from earlier work
Sequence of UniProt P52565 (P52565 2-204): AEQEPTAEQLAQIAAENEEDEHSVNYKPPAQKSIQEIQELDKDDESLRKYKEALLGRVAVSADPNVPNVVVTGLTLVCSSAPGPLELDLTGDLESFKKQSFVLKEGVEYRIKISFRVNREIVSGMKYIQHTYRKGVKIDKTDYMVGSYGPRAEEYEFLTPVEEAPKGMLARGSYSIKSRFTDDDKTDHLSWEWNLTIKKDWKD

Sequence of Cdc42 (P60953 1-188): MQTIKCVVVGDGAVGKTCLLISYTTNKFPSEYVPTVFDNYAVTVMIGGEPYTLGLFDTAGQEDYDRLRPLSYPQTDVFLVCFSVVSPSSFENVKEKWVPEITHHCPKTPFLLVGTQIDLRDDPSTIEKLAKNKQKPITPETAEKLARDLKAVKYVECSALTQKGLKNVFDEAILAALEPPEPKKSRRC

Substance: full-length Atto488-N-WASP (from UniProt O00401 1-505) (natural protein)
patterning index of A647-Cdc42 (inside against outside of GEF-containing areas) after GEF addition in the presence of Atto488-N-WASP [3]: 1.35

Substance: A488-2xwCRIB (from UniProt P42768 201-268; P42768 201-268) (domain or fragment)
dwell time of A647-Cdc42 on the membrane inside the GEF-containing region in microfluidic flow-out, with 2xwCRIB [5]: 1.4 fold

Substance: Cdc42 (from UniProt P60953)
Kd (RhoGDI1 (Homo sapiens)): 0.09 nM

Continued, values first:

maximal rate of nucleotide exchange (Cy5-GDP to unlabeled GDP) from Cy5-GDP:Cy3-Cdc42:RhoGDI1 complexes (100 nM) with ITSNcat-His10 pre-bound to PM LUVs, GEF concentration varied [1]: 0.0002 s⁻¹
concentration of Cdc42:RhoGDI1 complexes against free Cdc42 needed to reach similar levels of membrane-bound GTPase on SLBs (600 nM vs 5.5 nM) [2]: 100 fold
Substance: RhoGDI1 (unlabeled) (from UniProt P19803 1-204) (natural protein)

fraction of Cdc42 molecules co-recruited with RhoGDI1 [4]: 63%
Substance: A647-RhoGDI1 (from UniProt P19803 1-204) (natural protein)
